This data set in a line: soluble on expression in E. coli; label from the status in PepcDB or PDB records.
For the sequence “MGSDKIHHHHHHMLQPFLASADTFTQQHFANRHAILLKYPQSSAVTFAAAVWENSFHANALYFDVVGDVAWLPQLLEDLRQLADHHDRLQYSSYAAQSAVITQLQAKHFRAFRRTAMSDYRKVVATPEADVRSRSQLTSAQWHDVVQMSFANYVAAHADNPVTFNHATFEQQLAEAEDTQPSFLVENQQVQAYVFWFEDEPGALTSAWLGGQQFADIRRLLQTALFQVQARYSVVNGEFDDTDIHAWTVYQQLALPDPNPLISWQLLLDATRMP”, the “soluble on expression in E. coli” value was “not soluble”.
On to “MGSDKIHHHHHHMLEREGIEISLRTIQRDLNQIAQRFPIESNKAVPQGWRWQSDAPIQSLPHMTSSQAVTFMMVEEHLKHLLPPSLLDEMGPWFDLAKRSLSTQNNVRQWINRVRIVPASQPLIPPVVDRAAQQAIYEGLLQDKQIECVYRARVNQGEDKTYILNPLALVQKGAVIYLICTRHDKTEVQTFALHRFKSAKVLESRALHPVNFDIDHYIDSGALGFRVDYNQPTESIQLTLTMTEQTAKTFYESQLSKDQTITPIEENIVEVTATVPFTSQLVWWLRSFGKKLLHIEPVQVHNAVREIEPDSK”, for which the “soluble on expression in E. coli” value is “not soluble”.
On to “MGSDKIHHHHHHMERHTVNEIEIFTIPFDKARTISCAFLIKKGSAHEPEELAGISHFIEHMAFRGTKSYDHFSLKYTVEVVGGTLNAFTDKLATAYYAKVPEFHFGKTLNVLKEITFYPIFSPEDTEIERKIILEEYKMSQDDPTSKLFDTLVETVWPGPYGRPIIGRKETIEKISSEDLREYHRKNYNLPDTKIILAGKVNDDYLSLLEKELSELERNKPGDPLPPPPSFEHTEPRYIVRNDLEQVHIAMARPICGRISEDIYPLYALNTALGSGMSSILFHEIREKEGFVYDVFSQIYALKETGIIIVYAALSPEKIDEFFSKMKDVLSNESLFMKNFEYGKMRYLGKLDMVTDNPAGMMSFVIDDLSNDSLETIEERVERIKNVSKEDYRRAYERFIAGNWSVFGIGPESGKIIEKHEMIV”, for which the “soluble on expression in E. coli” value is “not soluble”.
On to “MGSDKIHHHHHHMTYDYTEPTLSAKGQRMRDILADYIALISHRLPDDVTAKLEELSKIEVDPLQKLVYDTMMENQLLANKLKRPSCQDTGALQFFIKCGAQFPLLGELNQILKDAVYRGTKKAPLRHNAVQTFDEYNTGMNIGDGIPSIFLQVDGNGTDISMYVYMAGGGCTLPGAAKVLMPGEGYEGVVRFVMDRMTSYGINACPPLLVGVGVATSVETAALNSKLALMRRVDSENPNANAAKLEHLLEDGINHIGLGPQGFGGQKSVMGVNVENTARHPSTIGVAVSTGCWSHRRGLINFDADLNYDLPLNKGVELS”, for which the “soluble on expression in E. coli” value is given as “not soluble”.
The value for “RRLIRLSDKTIAKSLNTSKFGGDELRRIGFHIRFHRAGALFARCWLLVEGETEVWLFNELARQCGYDLAAEGVQIVEFAQSGLRSLIKVAKEFGIDWHVVTDGDPAGKKYAHTVRAQLGHDQERHRLTELPDRDIEHFLYNHGFELFFKDMIKVPHDHPIPAKKVVNRVLKKHAKPDLALAIVSHCEEKGMECIPVLLRWTLKRIVTMASGNT” was “not soluble”; that for “MRSKLNQYNQKRNFTRTLEPEGITEMPQEGLRFVVQHHLARRDHYDLRLEWDGAMLSWAVPKGPSYNTWDKRLAVQVEDHPLEYRHFEGTIPKGEYGGGVVMLWDEGFWEPYVDVDGGLHEGMLKFVLKGRRLKGRWALVRMKGKAGDKKDNWLLLKEKDDYVQTADGISQFTTSLEHHHHHH” was “not soluble”; that for “SGNLDDNKFTWVIKNVPTLNSDMLFSNYFVIGGCSWRVVAHSKENNFKESLSLTLIVAEDSAQKMGCGWSRYAKIIFTLVNQISEILSQRIETMFDQKSSVFSSETMFSIGKFDEHFAGFIVNGEIKIVVEFLEIIDKLVLSKESNPPFKKTKLNNDGEVSKDLIREVPVIMESIVVNGFHVLPSQVEFVKRIFEKHPDVAKEFRPTNRIVKTAYMNVLLSLIETLRQSPREISKNDLDGACGLLRSMKEAGFKLDWLEKKLNEVLEKKEKEESYETRMREIEEEMKDLKAKALDVGAPLRLDDVV” was “not soluble”.
Under “MSLKLLFFDTETTGVKPGSICQLSYILVDTSTKPQKTIGKNIFFTVDEMEPEAERIHGFSLEKLYELSEGMYFEDLYADFINDFLEADFIIGHNVQFDIKFLKHELLGLGEFFEPNNVFCTMKYYKDICKILRPTGDYKNPKLEEVIKHLNITDSEISETANKYFQGSGNYHDARFDTAATYLTVINGIKKGLIPRNYFTKLLEAEGHHHHHH” stands “soluble”; under “MGHHHHHHSHMLALATSIHQSQLDRERILSLEQRVVELQQTLAQKDQALGKLEQSLRLMEEASFDGTFLWKITNVTRRCHESACGRTVSLFSPAFYTAKYGYKLCLRLYLNGDGTGKRTHLSLFIVIMRGEYDALLPWPFRNKVTFMLLDQNNREHAIDAFRPDLSSASFQRPQSETNVASGCPLFFPLSKLQSPKHAYVKDDTMFLKCIVETST”, “not soluble”; under “MGSDKIHHHHHHMRPTAIGSVCTPFVCWSCVARHGNTHVCWSCSVASVPCVTRAPVSVPGGLAAVCRTWLRRKGDLMNQGRPGVHVRVFDARVGDRVVVEPKGVGDRFMSVFVGWDAGRYLIVKMPSNLALKDHLYPDKPVVLRYLHCTGEVHGCETTIETSVAVPHRLLFLRHPESVEAVSLRKDAWVNCSVPALLRHEAGNMAGYLLDVSRGGCKVAYFEEEGLPTLAAGTEVQCSFRLPGGEQPVEVGAVVRNVAGEGGRIVCGLEFRDAPEPVVAAIGAYVDAAAFLVGTSCADRVVR”, “not soluble”.
Under “MNHLGKTEVFLNRFALRPLNPEELRPWRLEVVLDPPPGREEVYPLLAQVARRAGGVTVRMGDGLASWSPPEVLVLEGTLARMGQTYAYRLYPKGRRPLDPKDPGERSVLSALARRLLQERLRRLEGVWVEGLAVYRREHARGPGWRVLGGAVLDLWVSDSGAFLLEVDPAYRILCEMSLEAWLAQGHPLPKRVRNAYDRRTWELLRLGEEDPKELPLPGGLSLLDYHASKGRLQGREGGRVAWVADPKDPRKPIPHLTGLLVPVLTLEDLHEEEGSLALSLPWEERRRRTREIASWIGRRLGLGTPEAVRAQAYRLSIPKLMGRRAVSKPADALRVGFYRAQETALALLRLDGAQGWPEFLRRALLRAFGASGASLRLHTLHAHPSQGLAFREALRKAKEEGVQAVLVLTPPMAWEDRNRLKALLLREGLPSQILNVPLREEERHRWENALLGLLAKAGLQVVALSGAYPAELAVGFDAGGRESFRFGGAACAVGGDGGHLLWTLPEAQAGERIPQEVVWDLLEETLWAFRRKAGRLPSRVLLLRNGRVPQDEFALALEALAREGIAYDLVSVRKSGGGRVYPVQGRLADGLYVPLEDKTFLLLTVHRDFRGTPRPLKLVHEAGDTPLEALAHQIFHLTRLYPASGFAFPRLPAPLHLADRLVKEVGRLGIRHLKEVDREKLFFV” stands “soluble”; under “MSLAKGGKRMRRTLAGIAAVLGLALGQQQVTLFWSGAITGPTSDAGAPYGAAVEDYCKWANERKLVPGVVFNCVVRDDQYNNANTQRFFEEAVDRFKIPVFLSYATGANLQLKPLIQELRIPTIPASMHIELIDPPNNDYIFLPTTSYSEQVVALLEYIAREKKGAKVALVVHPSPFGRAPVEDARKAARELGLQIVDVQEVGSGNLDNTALLKRFEQAGVEYVVHQNVAGPVANILKDAKRLGLKMRHLGAHYTGGPDLIALAGDAAEGFLWATSFYMAHEDTPGIRLQKEIGRKYGRPENFIESVNYTNGMLVASIAVEAIRRAQERFKRITNETVYQAIVGMNGPNAFKPGFAVSTKQGVEIDFTKSEHTGAEGLRILEAKGGRFVPVTEPFTSALFRKVHYGEGHHHHHH”, “soluble”.
For “MGSDKIHHHHHHMDTLNQIDISIIIPIYNVEKYLTVCIDSLKNQGGLRMEIILVNDGSTDLSGEIADEYAKKEERIKVIHQENGGASAARNVGLDIATEEYIAFLDSDDWIKDESLSLLYDEAVKHHADVVMGNMWLCHQDGSMDKPFKCISNGSIKELLSGKESFIELVKTCFYLPMPFKYIYNRKYLHKIQARFEEGIMHEDELWCPIVLCQAERMVITNIEFYYYRQNEESVMHTTSLARRLKSLFQVTEGLIKFSDQFVSSKTSVDLRSWWYVNILRLYSKAFTLLPNIKDSSYIVHKHYLDRFWRDCGQMIPESIQRCRNYYYKAEAGLKEYTDWRVSDWVAGVDCQIKAGKKVMLVFNTINGEDLQLKIEDVPVDWVITTDRKYFQQATIVVFHLPTLHYELENDQDKLEGQTWVSWHLESEKDDPGINDPEISELFDLLISDPQDSEGEQHPLLRLCRNYVNNG”, the “soluble on expression in E. coli” value is given as “not soluble”.
For “MAHHHHHHMSSITGAAYSSPEYTHCIRDSRFRHNVYEPEADTFLFLDALDKDAELLRSIRPDRCVEVGCGSGAVITHLRCLLMPSVAAAATQELEAETPELCCGASGIRSAVGGPMFCAVDVNPLALEATAITWTETLLKYFRETVLAAFYERIFQSAVPTSLAAPVVLSAEGVSPPLTRVDADDPTSSALSASTFCLHRFHGDLLNALPRGNSAPALFDVVLFNPPYVPTSLKELQDAITQRDVITTAWCGGPRGRVVLDRFLRQLPSVLSRRGVCYVVLIKENNATDVVAFAQAAFREHLRCSGTETVKDEDDVLEASEVAARYTGEHLSVYRLRYVPRFQTP”, the “soluble on expression in E. coli” value is given as “not soluble”.
As for “MLIKLGTELTKEEYVTRYMRNFQKLLLLGDRPKVLTNREEQLLQYEKELCVLFYEQFIKKHHRAPDEATLDDQVKANFIERSKIFARSPLVMDEGNFTQAHIGQLKRLRELRMEDYLPDNYTHILQREEELARNYFRKHDDYPFGYECLCISRSREVVNQGLEKLLEGFYDSYQVYYRRYRKNG”, the “soluble on expression in E. coli” value is given as “not soluble”.
For “MNLIFPLFFFALLVGSNAQFQQFCNYCGFIEVPKTWPVAQDSLRSACETLGMATTACKGIINSADLNSSYGKMYPYII”, the “soluble on expression in E. coli” value is on record as “not soluble”.
The value for “SNAMLTFYEYPKCSTCRRAKAELDDLAWDYDAIDIKKNPPAASLIRNWLENSGLELKKFFNTSGQSYRALGLKDKLHQLSLDEAANLLASDGMLIKRPLLVKEGKIVQIGYRTAYEDLDF” was “soluble”.
Take “SAAIYSLYIINKSGGLIFYKDCGTKGRMDTNDSLRVASLWHSMHAISQQLSPVNGCSGIELLEADTFDLHCFQSLPGTKFFVVCEPGTPHMESLLRYIYELYTDYVLKNPFYEIEMPIRCELFDINLTQAVQSDRVALLGR”: the “soluble on expression in E. coli” value is “soluble”.
For “MYSFELDKLKIELKTWEHDFIDKNKREPTRDDIKSLRTVRQMYKQYSTLKKKQSLQRQKVDTQESVELPAHKKDHDEVVEIGPTPQVYGKAISIFDMNLSPIKPIYMTFTNNIDVNNDNSKTISNESSPRKTILLKSSPADRTLVAEPISSVKRQLNFQMLNASSTRTPTSSPCKNRNGKLVEIKKCSPTINPPLESGKPSGYYGPNSPLKLDEENIHLNISLNSSTKRRLQIAYPSLQKTPSKDQADISTSFSPSPLIRRPLTKSLIELAREHTEIVKEFGVLQEEDIEEEEEGEEGENGYDEKNHEDDFGLEDELIRPKVVKDIFQEDDDNDDSQAREDTFIRKRPKRRKVIRRLRDNDPETETAGFERDVHKELVKLKRRKVAEFLGSTSQISDTEFEHDPEASSGVVSSEQKPTAKRKGRKKYNLVSNNFRRLKLPKKNRFSNGRWGRR”, the “soluble on expression in E. coli” value was “not soluble”.
With “GTQPTFGFTVNWKFSESTTVFTGQCFIDRNGKEVLKTMWLLRSSVNDIGDDWKATRVGINIFTRLRTQKEGGSGGSARKCSLTGKWTNDLGSNMTIGAVNSRGEFTGTYITAVTATSNEIKESPLHGTQNTINKSGGSTTVFTGQCFIDRNGKEVLKTMWLLRSSVNDIGDDWKATRVGINIFTRLRTQKEGGSGGSARKCSLTGKWTNDLGSNMTIGAVNSRGEFTGTYITAVTATSNEIKESPLHGTQNTINKRTQPTFGFTVNWKFSE”, the “soluble on expression in E. coli” value was “soluble”.

Source of the values: the DeepSol protein solubility set.
